Source: PMC6646387, “Identification of intracellular cavin target proteins reveals cavin-PP1alpha interactions regulate apoptosis” (Nature Communications, 2019)

B1: mCherry-Cavin1 (natural protein, mouse, UniProt O54724 1-392, looked up)
chain: MEDVTLHIVERPYSGFPDASSEGPEPTQGEARATEEPSGTGSDELIKSDQVNGVLVLSLLDKIIGAVDQIQLTQAQLEERQAEMEGAVQSIQGELSKLGKAHATTSNTVSKLLEKVRKVSVNVKTVRGSLERQAGQIKKLEVNEAELLRRRNFKVMIYQDEVKLPAKLSVSKSLKESEALPEKEGDELGEGERPEDDTAAIELSSDEAVEVEEVIEESRAERIKRSGLRRVDDFKKAFSKEKMEKTKVRTRENLEKTRLKTKENLEKTRHTLEKRMNKLGTRLVPVERREKLKTSRDKLRKSFTPDHVVYARSKTAVYKVPPFTFHVKKIREGEVEVLKATEMVEVGPEDDEVGAERGEATDLLRGSSPDVHTLLEITEESDAVLVDKSDSD
notes: Murine Cavin-1 (PTRF, caveolae-associated protein 1); oligomeric in MCF-7 cells by burst brightness; also called mCherry-tagged Cavin1; source: MCF-7, transfected, in lysate (cytosolic or PNS fraction)
B2: mCherry-Cavin3 (natural protein, mouse, UniProt Q91VJ2 1-260, looked up)
chain: MGESALEPGPVPETPAGGPVHAVTVVTLLEKLATMLEALRERQGGLAERQGGLAGSVRRIQSGLGALSRSHDTTSNTLTQLLAKAERVGSHADAAQERAVRRAAQVQRLEANHGLLVARGKLHVLLFKEETEIPARAFQKVPELLGPEDQLVLGPDQPEDEVGESSEEEPVESRAQRLRRTGLQKVQSLKRALSSRKAAQPTPVKPPRVGPVRSSEGPSEGQPAAQPEMESELETALEPEPPQPTKEDPEKPVLQIESAA
notes: Murine Cavin-3 (PRKCDBP), amplified from NIH-3T3 fibroblast cDNA, in an mCherry vector; also called mCherry-tagged Cavin3; source: MCF-7, transfected, in lysate (cytosolic or PNS fraction)

Molecular target: T1, GFP-PP1α (UniProt P62136 1-330)
T1 construct: serine/threonine-protein phosphatase PP1alpha catalytic subunit (PP1α); construct provided by the Trinkle-Mulcahy Laboratory; printed both as GFP-PP1α and PP1α-GFP; also called PP1α-GFP; PP1alpha-GFP; source: MCF-7 or A431, transfected, in lysate
Experiment: single-molecule coincidence detection; PNS fraction of MCF-7 cells cotransfected with GFP-PP1α and Cherry-Cavin1 or Cherry-Cavin3, in PBS, diluted to about 1 nM; two-colour confocal detection; C = mCherry/(GFP+mCherry); oligomeric state from burst brightness
Conditions: partners not purified

T1 sequence (P62136 whole entry): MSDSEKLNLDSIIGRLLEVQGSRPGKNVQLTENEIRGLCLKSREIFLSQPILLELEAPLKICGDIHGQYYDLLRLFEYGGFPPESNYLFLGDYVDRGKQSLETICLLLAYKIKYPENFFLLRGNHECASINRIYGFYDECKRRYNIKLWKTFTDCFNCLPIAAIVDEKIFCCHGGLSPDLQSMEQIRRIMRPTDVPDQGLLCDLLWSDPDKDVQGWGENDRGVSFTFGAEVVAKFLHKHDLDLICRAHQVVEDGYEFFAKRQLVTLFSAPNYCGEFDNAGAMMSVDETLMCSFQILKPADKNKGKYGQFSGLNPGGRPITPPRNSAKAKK

Binder | coincidence ratio | stoichiometry N
B1 | 0.7 | 
B2 | 0.5 | 1
